Data published in patent US20250051437A1 (University of California, published 2025).

Legend:
[1] = biological target: T1, human cadherin-17 (CDH17), endogenously expressed on human cancer cell lines (LS513, SNU-C1, PaTu8988s, … (human, UniProt Q12864 23-832)); assay: flow cytometry (iQue) on PATU8988S cells, 1 µg Ab
T1 construct: also called LS513 (Colon, CDH17+); HPAF2

[2] = biological target: T1, human cadherin-17 (CDH17), endogenously …; assay: flow cytometry (iQue) on SNUC1 cells, 0.2 µg Ab
[3] = biological target: T2, human CDH17-mGFP fusion protein overexpressed on HEK293T cells (clone G11) (human, UniProt Q12864 23-832); assay: KinExA, cell-based, HEK293T human CDH17mGFP G11 (same value as r12)
T2 construct: also called HEK293T CDH17mGFP Clone G11; HEK293T Human CDH17mGFP G11; not shown: mGFP fluorescent protein fused to CDH17
Method: (§1) The cell-based antibody affinity (KD) of the anti-CDH17 antibodies was measured by KinExA 4000 (Sapidyne Instrument, Boise, Idaho). Briefly, HEK293T overexpressing CDH17-fluorescent protein fusion (i.e., human CDH17-mGFP, monkey CDH17-mGFP, mouse CDH17-mGFP or rat CDH17-mGFP) were detached with Versene and equilibrated with either 50 pM, 200 pM, 20 nM, or 50 nM antibody in 2% FBS/DMEM at 4° C. overnight. The cell concentration started at 5×10⁶ cells/mL or 1×10⁷ cells/mL and 2-fold serial dilutions were performed up to 10 points. The next day, the cells were centrifuged at 1500 rpm for 10 min and the supernatants were saved. […] In contrast, while the humanized anti-CDH17 antibody, 07-0653-h43, fails to bind mouse CDH17 protein, it binds rat CDH17 protein equally well as to human and monkey CDH17 protein such that its Kp is less than about 1 nM for human, monkey and rat CDH17 proteins with overlapping 95% confidence interval values.

[4] = biological target: T2, human CDH17-mGFP fusion protein …; assay: KinExA, cell-based, HEK293T CDH17mGFP clone G11
Method: as §1

[5] = biological target: T2, human CDH17-mGFP fusion protein …; assay: flow cytometry (iQue) on HEK293T CDH17 mGFP clone G11 (human), 1 µg Ab
[6] = biological target: T2, human CDH17-mGFP fusion protein …; assay: KinExA, cell-based, HEK293T overexpressing human CDH17-mGFP (FIG. 16)
Method: as §1

[7] = biological target: T2, human CDH17-mGFP fusion protein …; assay: flow cytometry (iQue) on HEK293T CDH17 mGFP clone G11 (human), 0.2 µg Ab
[8] = biological target: T3, mouse CDH17-mGFP fusion protein overexpressed on HEK293T cells (mouse, UniProt Q9R100 26-827); assay: flow cytometry (BD C6) on HEK293T Mouse CDH17 mGFP cells
T3 construct: also called HEK293T Mouse CDH17mGFP mass; not shown: mGFP fluorescent protein
T3 sequence (Q9R100 26-827): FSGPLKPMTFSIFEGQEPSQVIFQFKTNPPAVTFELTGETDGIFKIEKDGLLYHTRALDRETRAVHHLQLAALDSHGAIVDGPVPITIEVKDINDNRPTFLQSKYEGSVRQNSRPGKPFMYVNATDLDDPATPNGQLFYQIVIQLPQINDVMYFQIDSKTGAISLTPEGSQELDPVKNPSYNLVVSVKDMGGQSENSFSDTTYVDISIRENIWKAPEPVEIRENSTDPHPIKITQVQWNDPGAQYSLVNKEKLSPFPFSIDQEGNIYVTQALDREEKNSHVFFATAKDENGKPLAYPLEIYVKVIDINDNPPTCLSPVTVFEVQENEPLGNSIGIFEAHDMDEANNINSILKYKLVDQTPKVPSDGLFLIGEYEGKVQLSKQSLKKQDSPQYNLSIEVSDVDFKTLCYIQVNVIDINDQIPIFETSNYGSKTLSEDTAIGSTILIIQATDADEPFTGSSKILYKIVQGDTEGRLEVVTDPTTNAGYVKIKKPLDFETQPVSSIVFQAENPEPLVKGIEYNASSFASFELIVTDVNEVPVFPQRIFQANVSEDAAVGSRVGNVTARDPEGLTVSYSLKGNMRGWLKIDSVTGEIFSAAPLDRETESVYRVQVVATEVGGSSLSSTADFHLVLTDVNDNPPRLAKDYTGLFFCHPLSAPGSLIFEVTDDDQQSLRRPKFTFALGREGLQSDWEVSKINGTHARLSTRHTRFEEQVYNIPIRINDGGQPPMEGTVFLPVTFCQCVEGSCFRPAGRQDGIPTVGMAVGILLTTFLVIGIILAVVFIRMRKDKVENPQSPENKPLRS
Method: (§2) To determine relative antigen binding strengths of the humanized antibodies, FACS assays were carried out as essentially described in Example 1. […] Using a BD Biosciences Accuri™ C6 Flow Cytometer (San Jose, CA), antibody binding based on Alexa Fluor® 647 fluorescence was measured in the FL4-H channel and fusion protein overexpression based on GFP fluorescence was measured in the FL1-H channel.

[9] = biological target: T1, human cadherin-17 (CDH17), endogenously …; assay: flow cytometry (iQue) on LS513 cells, 0.2 µg Ab
[10] = biological target: T1, human cadherin-17 (CDH17), endogenously …; assay: flow cytometry (iQue) on LS513 cells, 1 µg Ab
[11] = biological target: T4, recombinant CDH17 extracellular domain (ECD) with 6x His tag (human, UniProt Q12864 23-787); assay: ELISA on recombinant CDH17 ECD-6xHis
T4 construct: also called Recombinant CDH17 ECD-6xhis tag

[12] = biological target: T1, human cadherin-17 (CDH17), endogenously …; assay: flow cytometry on LS513 cells (CDH17+), 20 µg/ml
[13] = biological target: T1, human cadherin-17 (CDH17), endogenously …; assay: flow cytometry (iQue) on PATU8988S cells, 0.2 µg Ab
[14] = biological target: T5, rat CDH17 fused to moxGFP, overexpressed on HEK293T cells (rat, UniProt P55281 22-827); assay: flow cytometry on HEK293T rat CDH17mGFP mass population, 20 µg/ml
T5 construct: whole, on cells; also called HEK293T Rat CDH17mGFP mass pop; rat CDH17-moxGFP
T5 sequence (P55281 22-827): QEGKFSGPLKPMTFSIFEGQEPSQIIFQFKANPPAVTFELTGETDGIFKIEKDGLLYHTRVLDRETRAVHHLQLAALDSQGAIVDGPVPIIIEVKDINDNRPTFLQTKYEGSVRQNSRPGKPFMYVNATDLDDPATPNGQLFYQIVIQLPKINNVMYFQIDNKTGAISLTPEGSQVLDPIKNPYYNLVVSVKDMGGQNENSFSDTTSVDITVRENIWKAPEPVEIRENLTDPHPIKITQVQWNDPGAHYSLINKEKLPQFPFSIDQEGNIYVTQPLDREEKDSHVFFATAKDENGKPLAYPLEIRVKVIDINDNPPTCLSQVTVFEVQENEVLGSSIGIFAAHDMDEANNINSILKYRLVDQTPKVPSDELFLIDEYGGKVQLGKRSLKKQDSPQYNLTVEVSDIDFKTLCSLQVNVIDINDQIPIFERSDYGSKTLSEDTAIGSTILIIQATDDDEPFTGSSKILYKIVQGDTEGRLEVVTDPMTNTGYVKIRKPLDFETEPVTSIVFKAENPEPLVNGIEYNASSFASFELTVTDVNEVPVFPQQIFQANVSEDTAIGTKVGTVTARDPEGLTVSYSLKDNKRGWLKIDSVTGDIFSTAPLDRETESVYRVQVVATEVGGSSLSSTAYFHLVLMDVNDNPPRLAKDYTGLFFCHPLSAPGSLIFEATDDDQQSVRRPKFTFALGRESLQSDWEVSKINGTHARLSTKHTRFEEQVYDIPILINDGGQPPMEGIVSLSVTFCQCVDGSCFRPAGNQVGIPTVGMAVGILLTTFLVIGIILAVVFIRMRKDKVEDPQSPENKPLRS

[15] = biological target: T2, human CDH17-mGFP fusion protein …; assay: flow cytometry on HEK293T human CDH17mGFP G11, 20 µg/ml
[16] = biological target: T3, mouse CDH17-mGFP fusion protein …; assay: flow cytometry on HEK293T mouse CDH17mGFP mass population, 20 µg/ml
[17] = biological target: T1, human cadherin-17 (CDH17), endogenously …; assay: KinExA, cell-based, SNUC1 cells
[18] = biological target: T1, human cadherin-17 (CDH17), endogenously …; assay: flow cytometry (iQue) on SNUC1 cells, 1 µg Ab
[19] = biological target: T5, rat CDH17 fused to moxGFP, …; assay: flow cytometry (BD C6) on HEK293T Rat CDH17 moxGFP cells
Method: as §2

[20] = biological target: T5, rat CDH17 fused to moxGFP, …; assay: KinExA, cell-based, HEK293T rat CDH17mGFP mass population
Method: as §1

[21] = biological target: T5, rat CDH17 fused to moxGFP, …; assay: KinExA, cell-based, HEK293T overexpressing rat CDH17 fusion (FIG. 16)
Method: as §1

| Antibody Binding Activity by Flow iQue [1] | Antibody Binding Activity by Flow iQue [2] | Kd [3] [nM] | Kd [4] [nM] | Antibody Binding Activity by Flow iQue [5] | Kd [6] [nM] | Antibody Binding Activity by Flow iQue [7] | Antibody Binding Activity by Flow iQue [9] | Antibody Binding Activity by Flow iQue [10] | EC50 [11] [nM] | Antibody Binding Activity by Flow Cytometry [12] | Antibody Binding Activity by Flow iQue [13] | Cross Reactivity by Flow [14] | Cross Reactivity by Flow [15] | Cross Reactivity by Flow [16] | Kd [17] [nM] | Antibody Binding Activity by Flow iQue [18] | Binder | also measured |
| --- | --- | --- | --- | --- | --- | --- | --- | --- | --- | --- | --- | --- | --- | --- | --- | --- | --- | --- |
| 95600 | 120000 | 0.817 | 0.817 | 181000 | < 1 | 50500 | 2.86e+06 | 2.66e+06 | 0.73 | 47200 | 21400 | 2200 | 50500 | 2510 | 0.532 | 74900 | humanized anti-CDH17 antibody 07-0646-h7 (antibody, human IgG1, V domains shown, C-terminal lysine kept in the humanized antibodies; also called CDH17-646-h7; 07-646-h7) VH: QVQLVQSGAEVKKPGASVKMSCKASGYTFTSYNMHWVRQAPGQGLEWIGAIYPGNGDTSYAQKFQGRATLTVDTSTSTAYMELSSLRSEDTAVYYCARGRGRYFEYWGQGTTLTVSS VL: DIQLTQSPSSLSASVGDRVTMTCRASSSVSSSYLHWYQQKPGKAPKLLIYSTSNLASGVPSRFSGSGSGTDYTLTISSVQPEDFATYYCQQYDSSPSTFGQGTKLEIK | binding result [8]: no binding (tested: 1 µg); binding result [19]: no binding (tested: 1 µg) |
| 52200 | 77200 | 0.736 | 0.736 | 191000 | < 1 | 51800 | 1.79e+06 | 1.83e+06 | 1.13 | 24300 | 48100 | 71800 | 51800 | 2460 | 0.206 | 61400 | humanized anti-CDH17 antibody 07-0653-h43 (antibody, human IgG1, V domains shown, also called CDH17-653-h43) VH: QVQLVQSGAEVKKPGASVKVSCKASGYTFTDYYMNWVRQAPGQGLEWMGVIYPYSGGIGYAQKFQGRVTMTVDKSTSTAYMELSSLRSEDTAVYYCARGRGDYFGLFDFWGQGTTVTVSS VL: DIQLTQSPSSLSASVGDRVTITCRATSSLSYIHWYQQKPGKAPKPLIYEISKLASGVPSRFSGSGSGTDYTLTISSLQPEDFATYYCQQWNYPFTFGQGTKLEIK | Kd [20]: 0.535 nM; Kd [21]: < 1 nM |
